In patent publication US20170226155A1 (TRUSTEES OF TUFTS COLLEGE, published 2017):
Where no end group is shown, it is not given here. [ ]: non-standard residue; d: D form. The star is where a group is joined. boroPro = OB(O)[C@@H]1CCCN1*

What was measured:
[1] = biological target: Dipeptidyl amino peptidase type IV (DPP IV); assay: cell-based or functional assay
[2] = biological target: Dipeptidyl amino peptidase type IV (DPP IV); assay: cell-based or functional assay; remark: listed apart in the source

| Binder | IC50 at ten minutes, pH 2 [1] | IC50, pH 2 (Tetrapeptide Prodrugs) [2] [mM] | IC50, pH 8 (Tetrapeptide Prodrugs) [2] [mM] | IC50 at ten minutes, pH 8 [1] [nM] |
| --- | --- | --- | --- | --- |
| AAP[boroPro] [AlaAlaProboroPro] | 3 µM | 3 | 2 |  |
| YPF[boroPro] [TyrProPheboroPro] | 50 nM |  |  | 60 |
